Paper PMC6530869

How the values were obtained:
Conditions in all cases: SpdR and RtrB: 20 mM HEPES pH 7.8, 4 mM MgCl2, 37 mM KCl, 1 mM CaCl2, 0.75 mM DTT, 8% glycerol, 75 ug/ml BSA; RtrA: 10 mM Tris pH 7.6, 2 mM MgCl2, 50 mM KCl …
[1] = target: T1, RtrA (Caulobacter crescentus (NA1000?)) (UniProt A0A0H3CB76); test: competition
T1 sequence: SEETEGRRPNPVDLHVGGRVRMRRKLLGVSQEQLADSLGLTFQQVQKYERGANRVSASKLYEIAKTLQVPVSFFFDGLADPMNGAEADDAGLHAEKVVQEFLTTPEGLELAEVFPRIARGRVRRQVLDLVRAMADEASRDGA

[2] = target: T2, RtrB (Caulobacter crescentus (NA1000?)) (UniProt A0A0H3C9Q5); test: competition
T2 sequence: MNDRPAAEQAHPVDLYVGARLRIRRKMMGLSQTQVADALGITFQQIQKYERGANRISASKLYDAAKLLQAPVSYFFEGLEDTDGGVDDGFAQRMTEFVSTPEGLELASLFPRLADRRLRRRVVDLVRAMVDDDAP

[3] = target: T1, RtrA (Caulobacter crescentus (NA1000?)); test: EMSA
[4] = target: T2, RtrB (Caulobacter crescentus (NA1000?)); test: EMSA
[5] = target: T3, SpdR(D64E) D64E (Caulobacter crescentus (NA1000?)) (UniProt A0A0H3C6B9); test: EMSA
T3 sequence: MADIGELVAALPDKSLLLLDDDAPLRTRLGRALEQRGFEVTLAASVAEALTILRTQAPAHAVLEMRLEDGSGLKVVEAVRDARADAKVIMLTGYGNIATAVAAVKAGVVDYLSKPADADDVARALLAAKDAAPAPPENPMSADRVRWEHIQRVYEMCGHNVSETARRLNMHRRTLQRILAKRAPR

Sequence	binding [1]	binding [2]	binding [3]	binding [4]	binding [5]
TGGTGGTCCTGATCCTCCTGCAGCGACCGATCGTGCATCGCGCGCTGGTTCCCGCGCTCCTGCTCGCCTGGCTGGTCCTGAACGGGACGGACGTGATGCACTACAGCTAGGGCTCGGCGGCTCTGGTAAACAACCCAACCCCGATCAACGAAGGTTTAGAAAGCTTTAAGAGAAACGTTGCGAATTGTAAAATTCTTCTCTGGGTTGAAACCCATTTCGGGTGTATCGATGAGGTGTCGGGCCATTTATTGAGCGCGGACAGGATGTTGTCAGTG (double strand) [unlabeled specific hfiA competitor]	binds	binds			
TGGTGGTCCTGATCCTCCTGCAGCGACCGATCGTGCATCGCGCGCTGGTTCCCGCGCTCCTGCTCGCCTGGCTGGTCCTGAACGGGACGGACGTGATGCACTACAGCTAGGGCTCGGCGGCTCTGGTAAACAACCCAACCCCGATCAACGAAGGTTTAGAAAGCTTTAAGAGAAACGTTGCGAATTGTAAAATTCTTCTCTGGGTTGAAACCCATTTCGGGTGTATCGATGAGGTGTCGGGCCATTTATTGAGCGCGGACAGGATGTTGTCAGTG (double strand) [hfiA promoter probe]			binds	binds	no binding
CTAGGGACTGCCATCTTCGGCTGTATTTCAGATTTGTTTCCGCATTGTGGCTGCGACGAAATGTCGCGGTACCCGCTTGTGCGCTGTTTTGACGCGATTTCGTCATTGACGGCTCTCCTCACGCGAGAACACTGTTCTTGTAGTGCTTGCTCCGATGGGCTGATTGGGCAAGCCAGAGGGGTGGGATGTCTGGTTACGA (double strand) [cspD promoter probe]					binds
